Assay results from doi:10.1101/2024.12.03.626531, “Lineage–specific amino acids define functional attributes of the protomer-protomer interfaces for the Rad51 and Dmc1 recombinases” (bioRxiv, 2024).

Molecular target: the molecule itself
Assay: cryo-EM structure; helical filament: ScDmc1 5 µM with 0.25 µM 96-mer ssDNA in HR buffer supplemented with 1.5 mM CaCl2, 30°C for 5 minutes; 8 mM CHAPSO added before freezing

B1: S. cerevisiae Dmc1 (natural protein, UniProt P25453 1-334, looked up)
chain: MSVTGTEIDSDTAKNILSVDELQNYGINASDLQKLKSGGIYTVNTVLSTTRRHLCKIKGLSEVKVEKIKEAAGKIIQVGFIPATVQLDIRQRVYSLSTGSKQLDSILGGGIMTMSITEVFGEFRCGKTQMSHTLCVTTQLPREMGGGEGKVAYIDTEGTFRPERIKQIAEGYELDPESCLANVSYARALNSEHQMELVEQLGEELSSGDYRLIVVDSIMANFRVDYCGRGELSERQQKLNQHLFKLNRLAEEFNVAVFLTNQVQSDPGASALFASADGRKPIGGHVLAHASATRILLRKGRGDERVAKLQDSPDMPEKECVYVIGEKGITDSSD
notes: Dmc1 meiotic recombinase, Saccharomyces cerevisiae, full-length wild type; Helical filament on a 96-nt ssDNA with ATP; 6.35 monomers per turn; Expressed as 6XHis-ScDmc1; no removal of the tag is described; also called ScDmc1; yeast Dmc1; source: E. coli BL21 (DE3) Rosetta2, purified (Talon resin, heparin sepharose)
  binding result: binds
